# Target: human B7-H1 (hB7-H1) on the cell surface (human) (UniProt Q9NZQ7)
# Experiment: cell-based or functional assay
# Sequence of UniProt Q9NZQ7 (Q9NZQ7 19-290 limits assumed): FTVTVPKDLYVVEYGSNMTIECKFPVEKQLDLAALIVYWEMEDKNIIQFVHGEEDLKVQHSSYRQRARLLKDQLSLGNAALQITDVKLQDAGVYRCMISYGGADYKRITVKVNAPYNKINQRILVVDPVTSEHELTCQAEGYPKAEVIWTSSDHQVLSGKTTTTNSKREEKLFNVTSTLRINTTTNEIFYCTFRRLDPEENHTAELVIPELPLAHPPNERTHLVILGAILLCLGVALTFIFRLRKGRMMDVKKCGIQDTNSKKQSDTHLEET
substance,measurement,value
5H1 mAb specific for hB7-H1 (antibody),inhibition of apoptosis of M15 CTL cultured with B7-H1/624mel cells,> 50%

# Reference: US7794710
